Our source for the Kd values is publication PMC3433420, “Comprehensive Binary Interaction Mapping of SH2 Domains via Fluorescence Polarization Reveals Novel Functional Diversification of ErbB Receptors” (PLoS ONE, 2012).

“And” between values parts separate entries of the source, which are not always exact repeats. Identical values can stand only once. Non-standard residues stand in square brackets, D forms with d. No end group written: not given here. pY = N[C@@H](Cc1ccc(OP(=O)(O)O)cc1)C(=O)O; Rhodamine = not defined here

What all share (experiment): peptide or protein array; SH2/PTB proteins spotted on aldehyde slides, rhodamine peptide titrated in buffer B (20 mM HEPES, 100 mM KCl, 0.1% Tween-20, 5 mM DTT, pH 7.8), 1 h at room temperature; replicate assays
What all share (settings): both partners purified

One assay deals with T1, PLCG2 tandem SH2 domains (human).
T1 construct: PLCG2, human; also called PLCG2-NC; source: bacterial expression, purified
T1 sequence (P16885 whole entry, looked up): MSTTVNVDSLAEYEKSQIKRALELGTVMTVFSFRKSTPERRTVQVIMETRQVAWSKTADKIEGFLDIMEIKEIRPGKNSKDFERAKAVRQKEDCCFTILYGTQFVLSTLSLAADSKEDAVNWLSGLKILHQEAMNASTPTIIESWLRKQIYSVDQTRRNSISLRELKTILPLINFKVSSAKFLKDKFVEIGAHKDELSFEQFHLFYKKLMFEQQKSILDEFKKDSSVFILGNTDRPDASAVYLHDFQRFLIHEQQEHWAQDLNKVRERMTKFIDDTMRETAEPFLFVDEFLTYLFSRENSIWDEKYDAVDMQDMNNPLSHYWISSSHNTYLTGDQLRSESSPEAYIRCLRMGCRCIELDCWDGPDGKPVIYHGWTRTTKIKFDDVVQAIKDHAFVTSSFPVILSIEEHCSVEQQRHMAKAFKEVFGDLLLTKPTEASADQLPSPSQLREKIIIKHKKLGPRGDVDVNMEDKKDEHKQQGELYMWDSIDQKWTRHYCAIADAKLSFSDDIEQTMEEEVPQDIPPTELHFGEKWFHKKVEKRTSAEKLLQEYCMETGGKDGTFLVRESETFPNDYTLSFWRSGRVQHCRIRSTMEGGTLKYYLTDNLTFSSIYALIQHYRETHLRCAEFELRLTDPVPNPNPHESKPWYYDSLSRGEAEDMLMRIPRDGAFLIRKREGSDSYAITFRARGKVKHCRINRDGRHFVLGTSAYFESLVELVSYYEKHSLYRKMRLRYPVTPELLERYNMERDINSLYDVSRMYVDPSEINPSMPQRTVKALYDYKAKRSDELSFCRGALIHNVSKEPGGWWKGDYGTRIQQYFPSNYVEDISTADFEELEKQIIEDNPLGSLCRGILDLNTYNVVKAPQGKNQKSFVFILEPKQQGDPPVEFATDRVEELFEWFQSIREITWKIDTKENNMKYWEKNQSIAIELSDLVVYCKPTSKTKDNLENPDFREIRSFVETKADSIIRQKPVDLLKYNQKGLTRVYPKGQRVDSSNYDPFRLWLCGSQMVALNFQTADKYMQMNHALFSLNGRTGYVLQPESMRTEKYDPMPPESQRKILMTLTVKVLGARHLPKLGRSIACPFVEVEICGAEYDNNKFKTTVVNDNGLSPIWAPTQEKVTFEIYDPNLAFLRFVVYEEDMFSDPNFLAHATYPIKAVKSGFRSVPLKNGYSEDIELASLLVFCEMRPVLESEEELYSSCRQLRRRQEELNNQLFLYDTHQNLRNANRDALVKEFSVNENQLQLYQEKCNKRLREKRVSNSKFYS

Assay [1] addresses T2, PIK3R3 C-terminal SH2 domain (human).
T2 construct: PIK3R3, human; source: bacterial expression, purified

The target in a further assay is T3, SH2D1A SH2 domain (human, UniProt O60880 6-104).
T3 construct: SH2D1A, human; source: bacterial expression, purified
T3 sequence (looked up): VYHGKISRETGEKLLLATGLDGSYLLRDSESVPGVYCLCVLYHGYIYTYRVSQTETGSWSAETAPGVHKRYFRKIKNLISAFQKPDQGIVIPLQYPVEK

In assay [2] the target is T4, SYK C-terminal SH2 domain (human).
T4 construct: SYK, human; source: bacterial expression, purified

In another assay the target is T5, SH2D2A SH2 domain (human, UniProt Q9NP31 95-186).
T5 construct: SH2D2A, human; source: bacterial expression, purified
T5 sequence (Q9NP31 95-186): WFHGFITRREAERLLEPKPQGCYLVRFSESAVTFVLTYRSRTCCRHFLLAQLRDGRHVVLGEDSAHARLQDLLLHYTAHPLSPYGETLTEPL

Another assay concerns the target T6, ZAP70 tandem SH2 domains (human).
T6 construct: ZAP70, human; also called ZAP70-NC; source: bacterial expression, purified

The next assay addresses T7, BTK SH2 domain (human, UniProt Q06187 281-377).
T7 construct: BTK, human; source: bacterial expression, purified

Another assay deals with T8, FGR SH2 domain (human, UniProt P09769 144-241).
T8 construct: FGR, human; source: bacterial expression, purified

A further assay has as its target T9, BLNK SH2 domain (human, UniProt Q8WV28 346-453).
T9 construct: BLNK, human; source: bacterial expression, purified
T9 sequence (looked up): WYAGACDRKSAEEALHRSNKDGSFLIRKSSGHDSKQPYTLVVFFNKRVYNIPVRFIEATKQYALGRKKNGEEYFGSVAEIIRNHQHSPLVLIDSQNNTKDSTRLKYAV

T6 sequence (P43403 whole entry, the tested form may be a part): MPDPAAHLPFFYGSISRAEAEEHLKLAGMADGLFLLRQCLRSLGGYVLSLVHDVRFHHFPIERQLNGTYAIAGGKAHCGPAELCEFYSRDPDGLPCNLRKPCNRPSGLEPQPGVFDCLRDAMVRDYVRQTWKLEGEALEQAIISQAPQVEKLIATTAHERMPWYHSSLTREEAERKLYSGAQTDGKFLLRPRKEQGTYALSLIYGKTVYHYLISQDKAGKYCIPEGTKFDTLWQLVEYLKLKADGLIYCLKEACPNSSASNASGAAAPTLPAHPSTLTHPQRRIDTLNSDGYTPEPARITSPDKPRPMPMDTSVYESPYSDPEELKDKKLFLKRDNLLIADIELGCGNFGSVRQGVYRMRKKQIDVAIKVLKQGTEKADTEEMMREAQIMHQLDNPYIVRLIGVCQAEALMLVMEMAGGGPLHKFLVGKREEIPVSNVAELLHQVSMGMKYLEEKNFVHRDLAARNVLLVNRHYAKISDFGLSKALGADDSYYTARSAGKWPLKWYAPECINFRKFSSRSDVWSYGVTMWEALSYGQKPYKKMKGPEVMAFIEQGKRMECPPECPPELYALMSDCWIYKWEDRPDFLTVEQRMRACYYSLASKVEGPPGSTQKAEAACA
T7 sequence (Q06187 281-377): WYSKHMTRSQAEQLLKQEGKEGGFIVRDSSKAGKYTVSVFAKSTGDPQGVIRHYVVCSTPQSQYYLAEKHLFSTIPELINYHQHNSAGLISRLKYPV

Take Rhodamine-ETDG[pY]VAPLTCSD (reading uncertain) [ErbB2 pY1127 phosphopeptide, rhodamine-labelled, for protein microarrays]: the dissociation constant (Kd) with PLCG2 tandem SH2 domains was 578 nM and 1600 nM; in assay [1] it was 2040 nM and 1210 nM; in the assay with SH2D1A SH2 domain, 1600 nM and 4590 nM; in assay [2] it was 1920 nM and 2390 nM; with SH2D2A SH2 domain, 2750 nM; with ZAP70 tandem SH2 domains, 2010 nM and 2410 nM. For the same molecule, the equilibrium dissociation constant (Kd) in the assay with BTK SH2 domain is 4710 nM and 5890 nM; with FGR SH2 domain, 5180 nM; in the assay with BLNK SH2 domain, 1950 nM and 1250 nM.
